Consider eight substances from paper PMC9972320.

The target in the series is MSI1 RRM12 (human) (UniProt O43347). Briefly: ITC. As to conditions: ITC: 20 mM HEPES pH 7.5, 150 mM NaCl, 3 mM MgCl2, 25 C.
Where [1] appears, read: 30 uM RNA in cell, 600 uM protein titrant.

Sequence of MSI1 RRM12 (human) (O43347 20-191): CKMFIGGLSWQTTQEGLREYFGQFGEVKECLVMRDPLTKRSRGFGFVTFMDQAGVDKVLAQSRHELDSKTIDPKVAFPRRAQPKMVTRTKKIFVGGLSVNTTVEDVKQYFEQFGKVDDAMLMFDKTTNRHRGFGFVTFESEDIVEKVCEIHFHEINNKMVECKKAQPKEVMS

DENV4 3'UTR: the dissociation constant Kd under setting [1] turned out to be 336 µM. As to JEV 3'UTR, under setting [1], the Kd was found to be 218 µM.

Regarding MVEV 3'UTR, under setting [1], the Kd amounted to 265 µM. Under setting [1], USUV 3'UTR came in with a Kd of 301 µM. The substance ZIKV 3'SL came in with a Kd of 65.5 µM. On the same count and under the same terms, in the case of ZIKV 3'UTR WT it was 2.5 µM.

With ZIKV xrRNA1, under “[…]”, the Kd amounted to 94.6 µM. That is a double-digit micromolar value. ZIKV xrRNA2 deltaP4 registered a Kd of 5.7 µM. This lies in the single-digit micromolar range.

What is called Kd is the equilibrium constant for the complex coming apart. A low value points to a tighter complex.
